Source: patent publication EP4663654A1 (Hangzhou Sciwind Biosciences Co., Ltd., dated 2025)
Starred links: 1 amine or outer side, 2 acyl side, 3 side chain; linkers in the order of their positions; H or OH if unused. Non-standard residues stand in square brackets, D forms with d. Primed or numbered codes have the meaning given here. *: point of attachment. C20 diacid = O=C(O)CCCCCCCCCCCCCCCCCCC(=O)*; γGlu = O=C(O)[C@H](CCC(=O)[*:2])N[*:1]; βAsp = O=C(O)[C@H](CC(=O)[*:2])N[*:1]; Hyp = O=C(O)[C@@H]1C[C@@H](O)CN1; Inp′ = not defined here; Trx′ = not defined here; AEEA = NCCOCCOCC(=O)O

T1: human amylin receptor (AMY3) on CHO-K1/Ga15/AMY3 amylin receptor/CRE-luc cells (human, UniProt P30988 25-474; O60896 24-148)
T1 sequence (looked up) 1: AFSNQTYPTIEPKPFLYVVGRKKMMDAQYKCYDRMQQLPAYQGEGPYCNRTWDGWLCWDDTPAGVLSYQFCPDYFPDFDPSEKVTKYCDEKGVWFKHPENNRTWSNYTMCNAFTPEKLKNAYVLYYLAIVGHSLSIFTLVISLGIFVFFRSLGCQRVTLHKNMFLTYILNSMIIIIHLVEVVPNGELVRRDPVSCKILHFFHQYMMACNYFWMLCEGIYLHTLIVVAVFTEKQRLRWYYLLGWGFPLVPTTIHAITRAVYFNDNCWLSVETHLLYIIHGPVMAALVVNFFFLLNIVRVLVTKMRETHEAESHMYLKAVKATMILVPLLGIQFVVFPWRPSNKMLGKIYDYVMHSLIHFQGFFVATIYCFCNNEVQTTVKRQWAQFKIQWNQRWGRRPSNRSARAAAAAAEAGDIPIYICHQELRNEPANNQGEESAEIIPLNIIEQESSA
T1 sequence (looked up) 2: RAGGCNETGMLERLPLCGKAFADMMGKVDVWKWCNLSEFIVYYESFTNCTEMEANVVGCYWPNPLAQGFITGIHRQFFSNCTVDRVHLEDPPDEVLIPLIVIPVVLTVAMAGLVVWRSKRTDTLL


Biological target: T1, human amylin receptor (AMY3) on …
Assay: cell-based or functional assay

Row | EC50/nM, CRE-luciferase reporter in amylin receptor/CRE-luc CHO cells | Relative activity (the EC50 ratio of Cagrilintide to the compound) | Binder
1 | 0.038 nM | 68% | {C20 diacid-γGlu}-ASQLSTAVLGRLADFLRHSSNNLKPILPPTNVGSNT[Hyp]-NH2 (SMILES CC[C@H](C)[C@H](NC(=O)[C@@H]1CCCN1C(=O)[C@H](CCCCN)NC(=O)[C@H](CC(C)C)NC(=O)[C@H](CC(N)=O)NC(=O)[C@H](CC(N)=O)NC(=O)[C@H](CO)NC(=O)[C@H](CO)NC(=O)[C@H](Cc1c[nH]cn1)NC(=O)[C@H](CCCNC(=N)N)NC(=O)[C@H](CC(C)C)NC(=O)[C@H](Cc1ccccc1)NC(=O)[C@H](CC(=O)O)NC(=O)[C@H](C)NC(=O)[C@H](CC(C)C)NC(=O)[C@H](CCCNC(=N)N)NC(=O)CNC(=O)[C@H](CC(C)C)NC(=O)[C@@H](NC(=O)[C@H](C)NC(=O)[C@@H](NC(=O)[C@H](CO)NC(=O)[C@H](CC(C)C)NC(=O)[C@H](CCC(N)=O)NC(=O)[C@H](CO)NC(=O)[C@H](C)NC(=O)CC[C@H](NC(=O)CCCCCCCCCCCCCCCCCCC(=O)O)C(=O)O)[C@@H](C)O)C(C)C)C(=O)N[C@@H](CC(C)C)C(=O)N1CCC[C@H]1C(=O)N1CCC[C@H]1C(=O)N[C@H](C(=O)N[C@@H](CC(N)=O)C(=O)N[C@H](C(=O)NCC(=O)N[C@@H](CO)C(=O)N[C@@H](CC(N)=O)C(=O)N[C@H](C(=O)N1C[C@H](O)C[C@H]1C(N)=O)[C@@H](C)O)C(C)C)[C@@H](C)O) [polypeptide derivative M2]
2 | 0.042 nM | 58% | {C20 diacid-γGlu-AEEA-AEEA}-ASQLSTAATQRLADFLRHFTDRDRDILPPTNVGSNTP-NH2 (SMILES CC[C@H](C)[C@H](NC(=O)[C@H](CC(=O)O)NC(=O)[C@H](CCCNC(=N)N)NC(=O)[C@H](CC(=O)O)NC(=O)[C@H](CCCNC(=N)N)NC(=O)[C@H](CC(=O)O)NC(=O)[C@@H](NC(=O)[C@H](Cc1ccccc1)NC(=O)[C@H](Cc1c[nH]cn1)NC(=O)[C@H](CCCNC(=N)N)NC(=O)[C@H](CC(C)C)NC(=O)[C@H](Cc1ccccc1)NC(=O)[C@H](CC(=O)O)NC(=O)[C@H](C)NC(=O)[C@H](CC(C)C)NC(=O)[C@H](CCCNC(=N)N)NC(=O)[C@H](CCC(N)=O)NC(=O)[C@@H](NC(=O)[C@H](C)NC(=O)[C@H](C)NC(=O)[C@@H](NC(=O)[C@H](CO)NC(=O)[C@H](CC(C)C)NC(=O)[C@H](CCC(N)=O)NC(=O)[C@H](CO)NC(=O)[C@H](C)NC(=O)COCCOCCNC(=O)COCCOCCNC(=O)CC[C@H](NC(=O)CCCCCCCCCCCCCCCCCCC(=O)O)C(=O)O)[C@@H](C)O)[C@@H](C)O)[C@@H](C)O)C(=O)N[C@@H](CC(C)C)C(=O)N1CCC[C@H]1C(=O)N1CCC[C@H]1C(=O)N[C@H](C(=O)N[C@@H](CC(N)=O)C(=O)N[C@H](C(=O)NCC(=O)N[C@@H](CO)C(=O)N[C@@H](CC(N)=O)C(=O)N[C@H](C(=O)N1CCC[C@H]1C(N)=O)[C@@H](C)O)C(C)C)[C@@H](C)O) [polypeptide derivative M16]
3 | 0.018 nM | 136% | {C20 diacid-Trx′}-ASQLSTAATQRLADFLRHFTDRDRDILPPTNVGSNTP-NH2 (reading uncertain) [polypeptide derivative M14]
4 | 0.026 nM | 110% | {C20 diacid-βAsp-AEEA-AEEA}-ASQLSTAATQRLADFLRHFTDRDRDILPPTNVGSNTP-NH2 (SMILES CC[C@H](C)[C@H](NC(=O)[C@H](CC(=O)O)NC(=O)[C@H](CCCNC(=N)N)NC(=O)[C@H](CC(=O)O)NC(=O)[C@H](CCCNC(=N)N)NC(=O)[C@H](CC(=O)O)NC(=O)[C@@H](NC(=O)[C@H](Cc1ccccc1)NC(=O)[C@H](Cc1c[nH]cn1)NC(=O)[C@H](CCCNC(=N)N)NC(=O)[C@H](CC(C)C)NC(=O)[C@H](Cc1ccccc1)NC(=O)[C@H](CC(=O)O)NC(=O)[C@H](C)NC(=O)[C@H](CC(C)C)NC(=O)[C@H](CCCNC(=N)N)NC(=O)[C@H](CCC(N)=O)NC(=O)[C@@H](NC(=O)[C@H](C)NC(=O)[C@H](C)NC(=O)[C@@H](NC(=O)[C@H](CO)NC(=O)[C@H](CC(C)C)NC(=O)[C@H](CCC(N)=O)NC(=O)[C@H](CO)NC(=O)[C@H](C)NC(=O)COCCOCCNC(=O)COCCOCCNC(=O)C[C@H](NC(=O)CCCCCCCCCCCCCCCCCCC(=O)O)C(=O)O)[C@@H](C)O)[C@@H](C)O)[C@@H](C)O)C(=O)N[C@@H](CC(C)C)C(=O)N1CCC[C@H]1C(=O)N1CCC[C@H]1C(=O)N[C@H](C(=O)N[C@@H](CC(N)=O)C(=O)N[C@H](C(=O)NCC(=O)N[C@@H](CO)C(=O)N[C@@H](CC(N)=O)C(=O)N[C@H](C(=O)N1CCC[C@H]1C(N)=O)[C@@H](C)O)C(C)C)[C@@H](C)O) [polypeptide derivative M18]
5 | 0.026 nM | 94% | {C20 diacid}-E[AEEA][AEEA]ASQLSTAATQRLADFLRHFTDRDRDILPPTNVGSNTP-NH2 (SMILES CC[C@H](C)[C@H](NC(=O)[C@H](CC(=O)O)NC(=O)[C@H](CCCNC(=N)N)NC(=O)[C@H](CC(=O)O)NC(=O)[C@H](CCCNC(=N)N)NC(=O)[C@H](CC(=O)O)NC(=O)[C@@H](NC(=O)[C@H](Cc1ccccc1)NC(=O)[C@H](Cc1c[nH]cn1)NC(=O)[C@H](CCCNC(=N)N)NC(=O)[C@H](CC(C)C)NC(=O)[C@H](Cc1ccccc1)NC(=O)[C@H](CC(=O)O)NC(=O)[C@H](C)NC(=O)[C@H](CC(C)C)NC(=O)[C@H](CCCNC(=N)N)NC(=O)[C@H](CCC(N)=O)NC(=O)[C@@H](NC(=O)[C@H](C)NC(=O)[C@H](C)NC(=O)[C@@H](NC(=O)[C@H](CO)NC(=O)[C@H](CC(C)C)NC(=O)[C@H](CCC(N)=O)NC(=O)[C@H](CO)NC(=O)[C@H](C)NC(=O)COCCOCCNC(=O)COCCOCCNC(=O)[C@H](CCC(=O)O)NC(=O)CCCCCCCCCCCCCCCCCCC(=O)O)[C@@H](C)O)[C@@H](C)O)[C@@H](C)O)C(=O)N[C@@H](CC(C)C)C(=O)N1CCC[C@H]1C(=O)N1CCC[C@H]1C(=O)N[C@H](C(=O)N[C@@H](CC(N)=O)C(=O)N[C@H](C(=O)NCC(=O)N[C@@H](CO)C(=O)N[C@@H](CC(N)=O)C(=O)N[C@H](C(=O)N1CCC[C@H]1C(N)=O)[C@@H](C)O)C(C)C)[C@@H](C)O) [polypeptide derivative M17]
6 | 0.03 nM | 81% | {C20 diacid-Inp′}-ASQLSTAATQRLADFLRHFTDRDRDILPPTNVGSNTP-NH2 [polypeptide derivative M15]
